From patent US20180312587A1 (ADURO BIOTECH HOLDINGS EUROPE B V, published 2018) come the findings set out here.

Experiment [1] concerns the target T1, human SIRPα variant 2 (human, UniProt P78324 31-504).
T1 construct: full length ORF on transfected CHO-K1 cells; also called hSIRPαV2; SIRPαV2
As to the kind of experiment: flow cytometry, blockade of DyLight488-hCD47/Fc binding to THP-1 cells. The protocol: hCD47 blockade for the KWAR23, clone 18D5, and hSIRPα.40A antibodies was assessed by flow cytometry. For this purpose, THP-1 (ATCC TIB-202) and U-937 (ATCC CRL-1593.2) monocyte cell lines were used as the source of hSIRPα in the assay. THP-1 and U-937 cells were seeded in 96-well round bottomed tissue culture plates and incubated for 45 minutes with FcR Blocking Reagent (Miltenyi Biotec) and indicated anti-hSIRPα antibodies (20 μg/mL and dilutions thereof) in PBS/1% BSA at 4° C. […] After this labeling procedure, cells were washed two times, resuspended in PBS/1% BSA containing 0.1 μg/mL DAPI (BioLegend), and analysed by flow cytometry on the FACSVerse (BD Biosciences). Data were processed and analysed with FlowJo V10 software (FlowJo, LLC) and plotted using GraphPad Prism 6 (GraphPad Software, Inc.). Binding of recombinant hCD47 fused to an Fc domain of human IgG1 was monitored in the presence of increasing amounts of the anti-hSIRPα antibodies. […] IC50 values represent the concentration at which half of the inhibition is observed.

Experiment [2] has as its target T2, human SIRPα variant 1 (human, UniProt P78324 31-504).
T2 construct: full length ORF on transfected CHO-K1 or HEK293 cells; entry includes the signal peptide; also called hSIRPαV1; SIRPαV1
As to the kind of experiment: CELISA, CHO-K1 transfectants; average of two experiments. The method, then:
The binding specificity of antibodies hSIRPα.40A and hSIRPα.50A to hSIRPα were compared in a CELISA format. In short, CHO-K1 cells were transiently transfected with hSIRPαV1, hSIRPαV2, hSIRPβ1, hSIRPβL, and hSIRPγ cDNAs. Subsequently, hSIRPα binding was assessed by CELISA using CHO-K1.hSIRPαV1, CHO-K1.hSIRPαV2, CHO-K1.hSIRPβ1, CHO-K1.hSIRPβL, and CHO-K1.hSIRPγ cells. Detection of bound antibody was done with goat-anti-mouse IgG-HRP (Southern Biotech).
Target sequence in this assay (P78324 31-504 limits assumed, change not shown): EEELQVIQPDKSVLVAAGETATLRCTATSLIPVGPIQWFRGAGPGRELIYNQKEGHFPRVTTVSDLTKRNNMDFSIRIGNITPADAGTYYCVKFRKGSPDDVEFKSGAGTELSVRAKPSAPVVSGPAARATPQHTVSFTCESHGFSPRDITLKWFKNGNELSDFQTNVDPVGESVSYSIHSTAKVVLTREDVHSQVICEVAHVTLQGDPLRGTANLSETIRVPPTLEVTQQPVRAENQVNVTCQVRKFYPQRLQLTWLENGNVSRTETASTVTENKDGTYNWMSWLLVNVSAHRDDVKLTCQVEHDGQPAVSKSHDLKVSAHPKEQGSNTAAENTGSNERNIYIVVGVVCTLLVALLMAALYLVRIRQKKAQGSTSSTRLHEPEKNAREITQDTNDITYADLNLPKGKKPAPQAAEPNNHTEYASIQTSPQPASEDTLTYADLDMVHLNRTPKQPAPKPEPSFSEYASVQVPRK

Experiment [3] concerns the target T2, human SIRPα variant 1. Briefly: flow cytometry, blockade of DyLight488-hCD47/Fc binding to U-937 cells. The essentials: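 THP-1 or U-937 monocyte cells were placed in 96-well round-bottom plates and incubated at 4 °C for 45 minutes in PBS/1% BSA containing FcR Blocking Reagent and a dilution series of anti-SIRPα antibody. After a further wash, cells were resuspended with 0.1 μg/mL DAPI, read by flow cytometry and analyzed in FlowJo. IC50 is defined as the antibody concentration that gives half-maximal inhibition of CD47/Fc binding.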
Target sequence in this assay (P78324 31-504 limits assumed, change not shown): as above
For orientation: A flow cytometer gives signals particle by particle.

The target of experiment [4] is T2, human SIRPα variant 1. Briefly: CELISA, CHO-K1 transfectants, domain exchange study. From the text:
(§1) Based on the fold of SIRPα/β1/γ, the extracellular region can be subdivided into three separate domains: the Ig-like (immunoglobulin-like) V-type (IgV), Ig-like C1-type (IgC1), and Ig-like C2-type (IgC2) domain. The IgV domain is also known as the ligand-binding N-terminal domain of SIRPα and SIRPγ (which binds to CD47). The human SIRPβ1/γ mutants were designed based on the full length hSIRPβ1 sequence (SEQ ID NO: 38) and each individual Ig-like domain was substituted for the equivalent domain of human SIRPγ (SEQ ID NO: 40). […] Binding of hSIRPα.40A to the exchange mutants was tested using CELISA. To this end, CHO-K1 cells were transiently transfected, using Lipofectamine 2000, with the pCI-neo vectors encoding hSIRPαV1, hSIRPαV2, hSIRPβ1, hSIRP-VγC1βC2β, hSIRP-VβC1γC2β, and hSIRP-VβC1βC2γ, respectively. The transfected cells were cultured at 37° C., 5% CO₂ and 95% humidity in medium (DMEM-F12 (Gibco) with 5% New Born Calf serum (Biowest) and Pen/Strep (Gibco)) until confluent. Subsequently, cells were trypsinized and seeded in 96-well flat-bottom tissue culture plates and cultured at 37° C., 5% CO₂ and 95% humidity in culture medium until confluent. Then, culture medium was removed and cells were incubated for 1 hour at 37° C., 5% CO₂ and 95% humidity with hSIRPα.40A, hSIRPα.50A, and anti-hSIRPα clone SE5A5 antibodies. Next, cells were washed with PBS-T and incubated for 1 hour at 37° C., 5% CO₂ and 95% humidity with goat-anti-mouse IgG-HRP conjugate (Southern Biotech). After that, cells were washed three times with PBS-T and anti-hSIRPα immunoreactivity was visualized with TMB Stabilized Chromogen (Invitrogen). Reactions were stopped with 0.5 M H₂SO₄ and absorbances were read at 450 and 610 nm.
Target sequence in this assay (P78324 31-504 limits assumed, change not shown): as above

Experiment [5] concerns the target T1, human SIRPα variant 2. The experiment is described as above.
Description: as §1

For a further experiment, the target named is T3, human SIRPγ (human, UniProt Q9P1W8 29-387).
T3 construct: on transfected CHO-K1 cells; also called hSIRPγ
Briefly: CELISA, CHO-K1 transfectants; average of two experiments. The method, then: (§2) The binding specificity of antibody hSIRPα.50A to hSIRPα was compared antibody KWAR23 (Canadian Patent 2939293 A1), in a CELISA format. CHO-K1 cells were transiently transfected with hSIRPαV1, hSIRPαV2, hSIRPβ1, and hSIRPγ (GenBank accession: NM_018556.3) (SEQ ID NO: 39) cDNAs. Subsequently, hSIRPα binding was assessed by CELISA using CHO-K1.hSIRPαV1, CHO-K1.hSIRPαV2, CHO-K1.hSIRPβ1, and CHO-K1.hSIRPγ cells. Detection of bound antibody was performed with goat-anti-mouse IgG-HRP (Southern Biotech) for mouse antibodies including hSIRPα.50A and control antibodies or, alternatively, with goat-anti-human IgG-HRP conjugate (Jackson Immuno Research) for the KWAR23 antibody. KWAR23 (SEQ ID NO: 130; SEQ ID NO: 131) was expressed as a chimeric human IgG4 kappa antibody in CHO cells. As shown in FIG. 2 and the following Table 9, KWAR23 antibody cross-reacts with all members of the SIRP receptor family tested: it binds to hSIRPαV1, hSIRPαV2, hSIRPβ1, and hSIRPγ.

The target of experiment [6] is T2, human SIRPα variant 1. The experiment is described as above. The method, then:
as §2
The source holds these as a separate data set.

The target of experiment [7] is T1, human SIRPα variant 2. The description is as above. The protocol:
as §2

T1 sequence (P78324 other isoform, or with tags, fused parts or gaps mutant limits assumed): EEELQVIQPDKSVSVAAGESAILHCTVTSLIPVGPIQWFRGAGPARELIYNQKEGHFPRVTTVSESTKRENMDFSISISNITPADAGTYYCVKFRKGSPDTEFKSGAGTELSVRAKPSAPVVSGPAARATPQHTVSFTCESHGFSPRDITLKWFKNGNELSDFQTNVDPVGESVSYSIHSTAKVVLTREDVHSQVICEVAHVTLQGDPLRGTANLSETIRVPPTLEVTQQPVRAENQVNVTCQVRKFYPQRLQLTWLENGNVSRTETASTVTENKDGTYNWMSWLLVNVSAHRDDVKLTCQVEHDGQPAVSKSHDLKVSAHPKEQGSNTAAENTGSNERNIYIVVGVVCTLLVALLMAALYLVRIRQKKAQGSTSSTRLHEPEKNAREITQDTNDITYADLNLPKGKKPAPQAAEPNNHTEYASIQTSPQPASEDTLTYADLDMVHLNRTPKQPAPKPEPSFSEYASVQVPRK
T3 sequence (Q9P1W8 29-387 limits assumed): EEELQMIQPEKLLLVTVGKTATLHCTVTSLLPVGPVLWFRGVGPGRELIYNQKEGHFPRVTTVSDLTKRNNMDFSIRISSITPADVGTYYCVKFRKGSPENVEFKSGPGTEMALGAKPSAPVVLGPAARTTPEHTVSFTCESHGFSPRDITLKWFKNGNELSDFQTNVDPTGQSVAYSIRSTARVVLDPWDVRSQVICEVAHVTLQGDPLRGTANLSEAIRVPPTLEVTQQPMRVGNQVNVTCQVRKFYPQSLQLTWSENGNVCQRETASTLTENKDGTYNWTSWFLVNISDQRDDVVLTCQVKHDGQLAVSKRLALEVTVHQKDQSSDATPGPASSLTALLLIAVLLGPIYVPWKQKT

B1: hSIRPα.40A (antibody, mouse IgG1, kappa, V domains shown)
VH: EVQFQQSGTVLARPGTSVKMSCKASGSTFTSYWMHWVKQGPGQGLQWIGAIYPVNNDTTYNQKFKGKAELTVVTSTSTAYMEVSSLTNEDSAVYYCTRSFYYSLDAAWFVYWGQGTLVTVSA
VL: DIQMTQSPSSLSASLGERVSLTCRASQDIGSRLNWLQQEPDGTIKRLIYATSSLDSGVPKRFSGSRSGSDYSLTISGLESEDFVDYYCLQYASSPFTFGGGTKLEINR
notes: mouse antibody, full chains without signal peptide; also called mouse hSIRPα.40A
In general, IC50 refers to the concentration at which inhibition is half-maximal. As a reminder, the EC50 is the concentration at which the effect is half-maximal. Read a high EC50 as a need for much substance. Regarding B1, the half-maximal inhibitory concentration (IC50) with human SIRPα variant 2 [1] came to 0.548 nM; with human SIRPα variant 1 [3], 1.34 nM. Moreover, the EC50 with human SIRPα variant 1 [2] worked out at 0.109 nM; with human SIRPα variant 1 [4] it was 0.133 nM; with human SIRPα variant 2 [5] it was 0.101 nM.

B2: KWAR23 (antibody, V domains shown)
VH: EVQLQQSGAELVKPGASVKLSCTASGFNIKDYYIHWVQQRTEQGLEWIGRIDPEDGETKYAPKFQDKATITADTSSNTAYLHLSSLTSEDTAVYYCARWGAYWGQGTLVTVSS
VL: QIVLTQSPAIMSASPGEKVTLTCSASSSVSSSYLYWYQQKPGSSPKLWIYSTSNLASGVPARFSGSGSGTSYSLTISSMEAEDAASYFCHQWSSYPRTFGAGTKLELK
In the experiment with human SIRPα variant 2 [1], B2 registered a 50% inhibitory concentration (IC50) of 0.132 nM. Also, the EC50 with human SIRPγ amounted to 0.04 nM; with human SIRPα variant 1 [6], 0.081 nM; with human SIRPα variant 2 [7], 0.051 nM.

B3: hSIRPα.50A (antibody, V domains shown)
VH: QVQLQQSGPELVKPGASVRISCKASGFTFTNYYIHWVKQRPGQGLEWIGWIYPGNVNTKYNEKFKAKATLTADKSSTTAYMQLSSLASEDSAVYFCARPTIIATDFDVWGAGTTVTVSS
VL: DIVMTQSHKFMSTSVGDRVNITCKASQGVGTAVGWYQQKPGQSPRLLIYWASTRHTGVPDRFTGSGSGTDFSLAISNVQSEDLADYFCQQYSTYPFTFGGGTNLEIK
notes: light chain constant domain not tied; also called mouse hSIRPα.50A; hSIRPα.50A.mIgG1
For B3, the EC50 turned out to be 1.25 nM with human SIRPγ; 1.36 nM with human SIRPα variant 1 [6]; 1.3 nM with human SIRPα variant 2 [7]; 1.43 nM with human SIRPα variant 1 [2]; 0.968 nM in the experiment with human SIRPα variant 1 [4]; 0.821 nM with human SIRPα variant 2 [5]. Further, the 50% inhibitory concentration (IC50) with human SIRPα variant 1 [3] worked out at 19.5 nM.
